This note sets out measurements from PMC8017197 (Frontiers in Immunology, 2021).

This test concerns the target T1, linear (M1)-tetraubiquitin (UniProt P0CG48 1-76; P0CG48 1-76; P0CG48 1-76; P0CG48 1-76).
T1 construct: ubiquitin, first of four units joined head to tail (Met1-linked); ubiquitin, second unit; ubiquitin, third unit; ubiquitin, fourth unit; Four ubiquitins on one chain, N-terminal Met1 linked to the C-terminus of the unit before; also called linear (M1)-linked tetraubiquitin; source: bought: Boston Biochem
The experiment in a line: pull-down; GST-fusion proteins with tetraubiquitin (3.4 μg), then glutathione Sepharose at 4°C 1 h; bound ubiquitin detected by anti-ubiquitin immunoblotting. The following applies: both partners purified. For orientation: In western blotting, separated proteins are transferred to a membrane and probed.

T1 sequence (P0CG48 1-304, one chain of several): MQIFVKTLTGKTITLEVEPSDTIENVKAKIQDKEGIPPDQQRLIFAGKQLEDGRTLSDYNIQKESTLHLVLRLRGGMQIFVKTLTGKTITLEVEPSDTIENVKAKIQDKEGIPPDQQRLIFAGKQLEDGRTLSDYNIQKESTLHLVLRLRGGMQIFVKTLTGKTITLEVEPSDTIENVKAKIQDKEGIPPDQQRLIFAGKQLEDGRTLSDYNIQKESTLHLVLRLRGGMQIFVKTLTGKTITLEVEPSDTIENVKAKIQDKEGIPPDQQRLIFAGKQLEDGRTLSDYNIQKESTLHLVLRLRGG

B1: GST-fused UBZ domain (a.a. 394-446) of NDP52 (domain or fragment, human, UniProt Q13137 394-446, looked up)
chain: IKKCPICKADDICDHTLEQQQMQPLCFNCPICDKIFPATEKQIFEDHVFCHSL
notes: NDP52 (CALCOCO2), human, UBZ domain, a.a; Vector pGEX6p-1; also called GST-fused NDP52-UBZ domain; source: E. coli BL21 (DE3)pLysS, purified with a GSTrap column
As for B1, the binding result was “binds”.
